Laboratory results from a protein production outcome set (Wang et al. 2014).

Assay: label from the status in PepcDB records

Sequence | protein production
MITIKKQEIVKLEDVLHLYQAVGWTNYTHQTEMLEQALSHSLVIYLALDGDAVVGLIRLVGDGFSSVFVQDLIVLPSYQRQGIGSSLMKEALGNFKEAYQVQLATEETEKNVGFYRSMGFEILSTYDCTGMIWINREK | not failed
MKVFFVVTHLLGSGHLSRTLVLARAHLKAGHEVTLISGGMPVPHLSHDGITLVQLPALRSDGVNFTRLLDDKGDVASETLMRDRREKLLSTFEEAAPDVLVTELFPFGRRSLSDEFLALLNMAKARKNPPRICCSIRDILAPPSKPSKAARVRDIITEFYDAIIVHSDPDVTPLAASWPVTEDIAEKLRYSGFVANPPAPMHPDAPGQGEVLVSAGGGAVGDALYAAALGAAKLNGDLHWRVLVGGADAPAKCAALKEGCPANTTIEPARPDFRQMLHRAKASVSMCGYNTALDILQSGTPAVFVPFDAGGEVEQSLRASALAKMAGIRVVNSVDLQPEALLNTVHSVVQDPRRGPQTRGLDGASRTAELLETLVEASGHAG | failed
MKISLVTVTFNSAKTLCDTIHSVLSQSYTNIEYIIVDGLSNDETVTLIKEYEPLFQGRLKWISEKDKGLYDAMNKGIRMSTGDIVGIINSDDFYHRGDVLEKVAESFEAGETEAIYGDVRFVNPDNLDRTVRYYSSKRFVPSLFRFGFMPAHPTFFTYRKYFDQFGYYKTNYKIAADYELLVRFLYVHRLKSKYLPLDFMKMRTGGASTASIKSNILLNKEIVRACKENGIWTCYPLLLLKYLVKVFELIFIKKLEHHHHHH | not failed
MAMNGTITTWFKDKGFGFIKDENGDNRYFHVIKVANPDLIKKDAAVTFEPTTNNKGLSAYAVKVVPESKYIYIAGERLKLTSIKSYLVYSEEVPADTRIDKENTVLSVGVLMNSIRPKSVAEPDEIRSLKKLAITTFQGTTLIFSEDEIDVDATVKLLKVLEHHHHHH | not failed
MSKFDGYFLRQLLVLCGFFAFVLVGVFWISKAVSLFDRLISSGQTAMVALEFTALTLPTLVRTVMPMAAFCATVYVTNRLNRESEMTVMLATGSSPFRLARPVILFGLVCAAMLATITLYLRPAAMLRLEARQAEVAGDMTAQLLNDGQFMHPVKGVTVYIGKIDRDGTLNDVYLSDRRAPERVVTYTSSKAFLARSGEQIALVMVEGTALQMETGRRTLSTTVFRDFSYDISALAKRDIERRQDIRGMPTLALATAFDGEGLAETYSRGEISEELQERLSWIGVSVAVTLIGFSTLMLGTFSRFGLWPQLIAAFAGLIALEGMRSTATAFVGSHPGLWWVQHAPALGGIALSILFLKLAGRPLRLRRYPDTGSV | failed
NDQDAIQEKFYPPRFIQVPENMSIDEGRFCRMDFKVSGLPAPDVSWYLNGRTVQSDDLHKMIVSEKGLHSLIFEVVRASDAGAYACVAKNRAGEATFTVQLDVLAKEHKRAPMFIYKPQSKKVLEGDSVKLECQISAIPPPKLFWKRNNEMVQFNTDRISLYQDNTGRVTLLIKDVNKKDAGWYTVSAVNEAGVTTCNTRLDVTARPNQTLPAPKQLRVRPTFSKYLALNGKGLNVKQAFNPEGEFQRLAAQSGLYESEEL | failed
MDALQLLTWSLILYLFASLASLFLLGLDRLAIKLSGITSLVGGVIGIISGITQLHAGVTLVARFAPPFEFADLTLRMDSLSAFMVLVISLLVVVCSLYSLTYMREYEGKGAAAMGFFMNIFIASMVALLVMDNAFWFIVLFEMMSLSSWFLVIARQDKTSINAGMLYFFIAHAGSVLIMIAFLLMGRESGSLDFASFRTLSLSPGLASAVFLLAFFGFGAKAGMMPLHSWLPRAHPAAPSHASALMSGVMVKIGIFGILKVAMDLLAQTGLPLWWGILVMAIGAISALLGVLYALAEQDIKRLLAWSTVENVGIILLAVGVAMVGLSLHDPLLTVVGLLGALFHLLNHALFKGLLFLGAGAIISRLHTHDMEKMGALAKRMPWTAAACLIGCLAISAIPPLNGFISEWYTWQSLFSLSRVEAVALQLAGPIAMVMLAVTGGLAVMCFVKMYGITFCGAPRSTHAEEAQEVPNTMIVAMLLLAALCVLIALSASWLAPKIMHIAHAFTNTPPATVASGIALVPGTFHTQVTPSLLLLLLLAMPLLPGLYWLWCRSRRAAFRRTGDAWACGYGWENAMAPSGNGVMQPLRVVFSALFRLRQQLDPTLRLNKGLAHVTARAQSTEPFWDERVIRPIVSATQRLAKEIQHLQSGDFRLYCLYVVAALVVLLIAIAV | failed
MSSGKVIVYGGKGALGSAILEFFKKNGYTVLNIDLSANDQADSNILVDGNKNWTEQEQSILEQTASSLQGSQVDGVFCVAGGWAGGSASSKDFVKNADLMIKQSVWSSAIAAKLATTHLKPGGLLQLTGAAAAMGPTPSMIGYGMAKAAVHHLTSSLAAKDSGLPDNSAVLTIMPVTLDTPMNRKWMPNADHSSWTPLSFISEHLLKWTTETSSRPSSGALLKITTENGTSTITPQ | not failed
MKHGMNARKQLWIAVICMTFVVILGTIGFMTIEEISLFQAFWMTMITVLTVGYGDAVPVTQAGKVFALLIIPVGVGIVTYAIGVVAAMIIEGNLFHAVRRKKMDKQIAQLKNHIIVCGCGRVGLQVVHELQEKNIPFVVVDKDESILEQEKLLFVHGDATEDQVLHNAGILKAAGLVAIVANDAENVFITLTARGLNDTIKIVARSEKPETEEKLRRAGANKVINPSSMAGIHIAKGIANPLTVHYIDTVLYGIEQSFVIEEILVGKDSILVGKSLLESNVRNQFDVTILAISRNGDIIHNPAGQEKLKERDMIIVFGSVEKLGQFEKELQSTR | failed
MVTAAQPRSPSPSPSSTAAAGQVTRRVPAVRHLGPNWYACVMGTAIVGTAGAALPGHVAGLRAACTAVWALSLVLLVVLLTARSLHWLHHRDQARAHLLDPSAAPFYGCLSMALLAVGGGALALGRDWIGTPAAVALDTVLFTAGTVIGLAAAVAVPYLMAVRHRVEPGQASPVWLLPLVAPMVSAAVGPLLVPHLPAGQPRETLLLACVAMFGMSLFATLVTLPVVFGRLLTGGPLPLALTPSLFLVLGPLGQSTTAVGKFADVAPGVVPGPYAEGFAVFAVLYGVPVTGFALMWLALAAAHVVRARRAGMRFSMTWWSFTFPVGTCVTGAEALARETGLVVYDGLTVALYALLVAAWAVAAVHTARGLFSGVLLAGPRPAPGAPRPATARTT | failed
MKKIAVTYGEEKYSYADIIKYVNYYSEFLDISKGDRVALMMENRPESIFSFFSIWAKKGIALSLDAGYTVEQLAFVLNDSKPKYIFVSNKIKEVVEKANEQVGNIVKIMVVDEITLPTDYVIKQEEYENDSNEDLAVIVYTSGTTGNPKGVMITYELEHHHHHH | not failed
MNSKAMQALIFLGFLATSCLAQAPAPAPTTVTPPPTALPPVTAETPSPIASPPVPVNEPTPAPTTSPTTSPVASPPQTDAPAPGPSAGLTPTSSPAPGPDGAADAPSAAWANKAFLVGTAVAGALYAVVLA | failed
MEGNKSLVVAHAQRCVVLRFLKFPPNKKKTSEEILQHLQNIVDFGKNVMKDFLGENYVHCGEVVQLPLEFVKQLCLKIQCERPESRCDKDLDTFSGYAMCLPNLTRLQTFHFAEHRPILCVEIKPKCGFIPFSNDVTHEMKHKVCRYCMHQHLKVATGKWKKISKYCPLDLYSGNKQRMHFALRSLLQETQNNLRIFKNGELIYGCGDARSPVADLKELAHHLKPFFFPSNGLASGPHCTKAVIRELVHVITRVLLSSSEKARAGALRLGLQGPRVCEASPFSRSLHNQGKNTSEHSGLPKGCLLYKTLQVQMLDQLDIEGLYPLYKRVEQYLEEFPEERKTLQIDGPYDEVFYQKLLDLSTEDDGTVAFALTKVQQYRVAMTAKDCSIMIALSPCLEHHHHHH | failed
MDIKEAGPFPVKKEQFRMTVNGQAWEVAAVPTTHLSDLLRKEFQLTGTKVSCGIGRCGACSILIDGKLANACMTMAYQADGHSITTIEGLQKEELDMCQTAFLEEGGFQCGYCTPGMIIALKALFRETPQPSDKDIEEGLAGNLCRCTGYGGIMRSACRIRRELNGGRRESGF | failed
MALINLNHTDDGYDAYDACPARSVQQETAVGAGAQILLLALLGTAIGMGTAGWLTGLAFAFASWAVLSRALHRSRLPSFGPANRVTLGRATLVGGVTALVADSFRSAPPLSLLVGLTAVALILDGVDGRVARRTGTSTPLGARFDMEVDAFLILVLSVYVALDLGPWVLLIGGMRYVFVAAARVWPWLTAPLPPSTARKTVAALQGVLLLLAGAELLPRPGNAGVVAVALGLLVWSFGRDVRWLWRRSRVPAAPVTAVRELVAQ | failed
MVTYSTFIVIAIYLILTILISWFVNQRSIGNTDFSTGGRQFGWFTAGVSILATYISAMTFIGMPGWVYQSGMEALNIHLNYPIVIFFAVVFFIPVFYRMGFTSIYEYLEHRFGVYARTINSVVFILVQCISSGVILYAIALILIQILPISIVEAIVYITLFTACYTYAGGISTVIWTDMLQSAVLIAGSVAIFVLLLLQVDGVHGVSREQLNIINLQFDLGVDTTLWAGVVAVSFLHMSVYGTNQLIIQRTLATRCEKTAQKSMLLCGYGAFFIYFFFALLGVLLSIFYQERHFTNSNEVILDFVFHHTNPWVIGLIISALAAAAMSTLDSTYNSMATVATFDLYQRFIRRNAPDHHYQAVARKMSLVAAGLVVIPALLAVSNESVLKTIASLTSIFVGIRLGSFVLGLFSNQANEKGVIAGSIISIAAVLGARLMDIAWPWFAPIGTVFFLVSGVVISRYWGDNSIQQQAFIARQKHLFATPTMSQYGLLVFAAVTIAVCAIIPDWLYNALS | failed
MLKIFSTQLSGYFSRVSQKEEMNIEDSARLLAQALVGEGFIYLHGTNEMEGVVAEALFGAEPMKQAKRLFENGKEVEVTSADRVLLISRFSTDEEVVAIAKKLQADGHSIVGISAIQEGNESLEQYTDVHIDTKLLKGLIPDDEGNRYGFPSLMIALFAYHGIKFTIDEMLNEY | not failed
MVDNKKKRQYPLVPLSVIQSALEEDPISIKMILKHYHSYIVKLCLTNGFNEAEQFITYVDEYMLRQLEIKLIEAILKFKINLEHHHHHH | failed
MPNANEDNPSALSQVQRRAVSELLRVSPVADELARRFQEAGFSLALVGGSVRDALLGRLGNDLDFTTDARPEDVLKIVRPWADAMWEVGIAFGTVGAQKEGYQIEVTTYRSEAYDRTSRKPEVSYGDSIEEDLVRRDFTVNAMAVALPEKEFIDPHGGLDDLAARILRTPGTPEESFSDDPLRMMRAARFAAQLDFEVAPDVVTAMTEMAGRIDIVSAERVRDELNKLVLSAHPRKGLTLLVDTGLADHVLPELPALRLERDEHHRHKDVYDHSLIVLEQAIALEENGPDLTLRLAALLHDIGKPRTRRFEKDGRVSFHHHEVVGAKMTKKRMTALKYSNDLVKDVSRLVELHLRFHGYGTGEWTDSAVRRYVRDAGPLLDRLHKLTRSDCTTRNKRRAAALSRAYDGLEERIAQLQEQEELDAIRPDLDGNQIMEVLGVGPGPVIGQAYKFLLELRLENGPMEYDAAVAALKEWWAEQN | failed
MSEDRSSNGQKSWLGKLTQAFVHEPKNRQELLELLREAHQNKLLDSEALAIVEGAIQVADLQVRDIMVPRSQMISIKATQTPREFLPAVIDAAHSRYPVIGESHDDVLGVLLAKDLLPLILKADGDSDDVKKLLRPATFVPESKRLNVLLREFRANHNHMAIVIDEYGGVAGLVTIEDVLEQIVGDIEDEHDVEEDSYIKPLPSGDFLVKALTPVENFNEFFDSAFSDDEFDTVGGLVMNAFGHLPKRNEITEIGAYRFRILSADSRRIHLLRVTPISRP | failed
MGNLPPHYGGSVNLLIAALGVLGVASSGPLIAGTLGATSVTALAIAFWRNAIGAVVMAGPVVIREPKAFGRITRREFGWSAVAAVALAFHFACFITALQLTSVAAATALVCLQSGWIAVFQLFRGTRHRWPVLVGLGIAFGGVVAITGFDMGSSPEALLGDLLALAGGALAGLYTLAGGKARQSMGTGTYTTLCYGMCAAIVAVMALFSGQPLAGFDAGGWLGIIAITVCAQLVGHTAFNHLLATMSPLLVSMIILLEIPGAAILAAIFLNETLPAGTYAGLALILVGLAVVVSGQRRGRPVADRREAELGAD | failed
ARRPMNAFLLFCKRHRSLVRQEHPRLDNRGATKILADWWAVLDPKEKQKYTDMAKEYKDAFMKANPGYR | not failed
